What was measured:
[1] = target: MS-(B1-L88N)8 L88N (Mycobacterium smegmatis) (UniProt A0QR29); settings: four 5' 2'-O-methyl-uracil on SEQ 19; 3' Cholesteryl-TEG on SEQ 20; mean S.D. of current levels; helicase translocation, +140 mV; unit assumed
[2] = target: MspA NNN-RRK pore MS-(B1)8 (Mycobacterium smegmatis) (UniProt A0QR29); settings: four 5' 2'-O-methyl-uracil on SEQ 19; 3' Cholesteryl-TEG on SEQ 20; mean S.D. of current levels; helicase translocation, +140 mV; unit assumed

NNNNTTTTTTTTTTTTTTTTTTTTTTTTTTTTTTTTTTTTTTTTTTTTTTTTTTGGTTGTTTCTGTTGGTGCTGATATTGCTTTTGATGCCGACCCTAAATTTTTTGCCTGTTTGGTTCGCTTTGAGTCTTCTTCGGTTCCGACTACCCTCCCGACTGCCTATGATGTTTATCCTTTGAATGGTCGCCATGATGGTGGTTATTATACCGTCAAGGACTGTGTGACTATTGACGTCCTTCCCCGTACGCCGGGCAATAACGTTTATGTTGGTTTCATGGTTTGGTCTAACTTTACCGCTACTAAATGCCGCGGATTGGTTTCGCTGAATCAGGTTATTAAAGAGATTATTTGTCTCCAGCCACTTAAGTGAGGTGATTTATGTTTGGTGCTATTGCTGGCGGTATTGCTTCTGCTCTTGCTGGTGGCGCCATGTCTAAATTGTTTGGAGGCGGTC / GCAATATCAGCACCAACAGAAACAACCTTTTTTTTTTTTTTTTTTTTTTTTTTTTTT
activity [1]: 1.79 pA | activity [2]: 2.3 pA

From patent publication US20140186823
